Data on 11 substances can be found in article PMC10328973.

Experiment [1] concerns the target UKNP5.2.1 E2E1-I53-50A trimer (permuted HCV envelope glycoprotein, genotype 5) (hepatitis C virus, strain UKNP5.2.1 (genotype 5)).
For experiment [2], the target named is UKNP2.2.1 E2E1-I53-50A trimer. In words: ELISA. Particulars: read off a plot. (In general: ELISA stands for enzyme-linked immunosorbent assay.)
Experiment [3] addresses UKNP5.2.1 E2E1-I53-50A trimer. Briefly: ELISA. Particulars: read off a plot.

As for AR3C (mature bNAb, IgG) (antibody), the Supplementary Figure 7b: IC50 of neutralization of UKNP5.2.1 HCVpp (% infectivity, serial dilution of IgG), AR3C IgG in experiment [1] was 0.07 µg/mL.
On to gl-HEPC74 G50R, for which the other: AUC in experiment [2] (parent: est. 1.0) was found to be 7.4; in experiment [3] (parent: est. 0.010), 0.04.
Substance HEPC3 (mature bNAb, IgG) (antibody) yielded a Supplementary Figure 7b: IC50 of neutralization of UKNP5.2.1 HCVpp (% infectivity, serial dilution of IgG), HEPC3 IgG in experiment [1] of 0.14 µg/mL.
Regarding gl-AR3A F54L; G50R, the other: AUC in experiment [2] (parent: est. 0.001) and in experiment [3] (parent: est. 3.4) was 0.001 in each case.
With gl-AR3C G50R, the other: AUC in experiment [2] (parent: est. 2.1) and in experiment [3] (parent: est. 0.65) was 0.001 each time.
As to gl-HEPC74 F54L, the results for the other: AUC in experiment [2] (parent: est. 1.0) and in experiment [3] (parent: est. 0.010) were 1.9 and 0.03, respectively.
The like results for gl-HEPC74 F54L; G50R were, in that order, 12 and 0.11.
Turning to gl-AR3C F54L; G50R, the other: AUC in experiment [2] (parent: est. 2.1) and in experiment [3] (parent: est. 0.65) was 0.001 each time.
In the case of gl-AR3A G50R, the other: AUC in experiment [2] (parent: est. 0.001) and in experiment [3] (parent: est. 3.4) was 0.001 each time.
With gl-AR3A F54L, the other: AUC was found to be 0.001 in experiment [2] (parent: est. 0.001) and 1.4 in experiment [3] (parent: est. 3.4).
As to gl-AR3C F54L, the other: AUC was 18 in experiment [2] (parent: est. 2.1) and 4.8 in experiment [3] (parent: est. 0.65).
